# Results as given in publication PMC10138680, “Identification and Functional Analysis of Tartrate-Resistant Acid Phosphatase Type 5b (TRAP5b) in Oreochromis niloticus” (International Journal of Molecular Sciences, 2023).
# Test system: T1, O=[N+]([O-])c1ccc(OP(=O)(O)O)cc1
# T1 construct: mature peptide of 302 residues (22-residue signal peptide removed; precursor 324 aa), N-terminal MBP tag (pMAL-c5X) kept, E. coli K12 TB1, amylose resin; forward primer F2 encodes MVEQGA
# Test: purified protein
# Assay type: biochemical, Oreochromis niloticus
# Settings: substrate 5-25 mM, pH and temperature of the kinetic runs not stated (50 mM acetate; optimum pH 5.0, 50 °C; standard assay 37 °C)
# Chain of (r)OnTRAP5b (Oreochromis niloticus) (chain, as listed by the source): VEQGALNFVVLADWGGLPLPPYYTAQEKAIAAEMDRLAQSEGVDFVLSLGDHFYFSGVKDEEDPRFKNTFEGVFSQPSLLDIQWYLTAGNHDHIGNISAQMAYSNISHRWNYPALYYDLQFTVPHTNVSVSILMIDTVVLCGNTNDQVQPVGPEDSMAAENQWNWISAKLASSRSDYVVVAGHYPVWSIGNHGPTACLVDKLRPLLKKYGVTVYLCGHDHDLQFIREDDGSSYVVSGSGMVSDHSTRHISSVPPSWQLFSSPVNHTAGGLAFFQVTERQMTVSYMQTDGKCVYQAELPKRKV
substance,measurement,value
(r)OnTRAP5b (Oreochromis niloticus),Km,2112 µM
same,kcat,0.27 s⁻¹
